Earlier results on one substance are cited in article PMC2925223.

For the data set, the system named is His64. In words: not stated. As to conditions: His64 in the inward orientation in the crystal structures.

For “Carbonic anhydrase II (HCA II) Y7F (Homo sapiens; Y7F)”, the pKa entry is reported as “near 6.0”.
